Results as given in publication PMC7606452.

Target: recombinant K18 tau K311Q (acetylation-mimic) (human)
Assay: Thioflavin T fluorescence of heparin-induced aggregation; 10 μM K18 tau, 100 mM sodium acetate pH 7.0, 2 mM DTT, 10 μM heparin, 37 °C; 10 μM ThT, 430 nm excitation and 500 nm emission

How did the fold increase in ThT-positive fibrils against WT or K311R turn out when “recombinant K18 tau K311Q (acetylation-mimic) (domain or fragment)” was run?
Its fold increase in ThT-positive fibrils against WT or K311R is 3 fold.
